Laboratory results taken from patent US20060287503, “Retinoid X receptor-interacting polypeptides and related molecules and methods” (published 2006).

T1: RIP15 (Mus musculus, UniProt Q60644 SEQ:1-446)
T1 chain: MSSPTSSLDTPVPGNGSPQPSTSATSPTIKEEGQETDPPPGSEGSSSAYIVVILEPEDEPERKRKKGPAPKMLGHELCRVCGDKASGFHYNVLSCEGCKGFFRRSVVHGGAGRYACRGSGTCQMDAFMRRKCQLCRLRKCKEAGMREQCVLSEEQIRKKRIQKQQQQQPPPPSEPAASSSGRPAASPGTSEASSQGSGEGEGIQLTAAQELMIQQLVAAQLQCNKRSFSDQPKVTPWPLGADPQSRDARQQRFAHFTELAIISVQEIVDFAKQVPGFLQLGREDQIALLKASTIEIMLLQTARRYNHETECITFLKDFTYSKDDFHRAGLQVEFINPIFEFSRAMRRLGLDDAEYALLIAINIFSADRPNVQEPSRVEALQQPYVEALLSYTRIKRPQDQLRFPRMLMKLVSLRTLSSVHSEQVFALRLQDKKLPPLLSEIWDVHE


Assays:
[1] = molecular target: T2, RIP14-1/RXRalpha heterodimer (Mus musculus / Homo sapiens, UniProt Q60641-2;P19793 Q60641-2:1-484,P19793:1-462); assay: EMSA; competition with 50-fold unlabeled betaRARE (specific) and AP1 (nonspecific) tested; conditions: tags: human RXRalpha expressed in E. coli; label: 32P end label
Procedure: (§1) In panel A, RIP14-1 without (lane 2) or with RXR (lanes 3-5) was incubated with the hsp27 promoter (EcRE) end-labeled with [³²P]ATP. In panel B, RIP15 (lanes 2-5) and RIP14-1 (lanes 9-12) without (lanes 2 and 9) or with (lanes 3-5 and 10-12) RXR were incubated with βRARE end-labeled with [³²P]ATP. In both cases, a 50-fold molar excess of unlabeled specific (sp; EcRE, lane A4 and βRARE, lanes B4 and B11) or nonspecific (ns; AP1, lanes A5, B5, and B12) oligomers were added with the labeled probe. Incubations with probe alone are shown in lanes A1, B1, and B8. Cell lysates used for in vitro translation were also incubated with the probes without (lanes A6 and B6) or with (lanes A7 and B7) RXR. RIP14-2 and the RIP14-1 chimeras containing a four amino acid insertion in the D domain (RIP14C) were also incubated with βRARE and RXR as shown in lanes B13 and B14, respectively. Specific bands are indicated by arrows.
(§2) To identify DNA sequences recognized by each orphan, in vitro translated proteins were used for gel shift assays. Because of their strong sequence similarity to the ecdysone receptor, a well studied ecdysone response element (EcRE) from the Drosophila hsp27 promoter (Riddilough et al., EMBO J. 6:3729-3734, 1987) was tested for binding to both orphans, in the presence and absence of RXR. […]

[2] = molecular target: T2, RIP14-1/RXRalpha heterodimer; assay: EMSA; competition with 50-fold unlabeled EcRE (specific) and AP1 (nonspecific) tested; 40 mM KCl, 2.5 mM MgCl2, pH 8.0, room temp; conditions: tags: human RXRalpha expressed in E. coli; label: 32P end label
Procedure: as §1, §2

[3] = molecular target: RIP15/RXRalpha heterodimer (Mus musculus / Homo sapiens, UniProt Q60644;P19793 Q60644:1-446,P19793:1-462); assay: EMSA; with RXR; conditions: tags: human RXRalpha expressed in E. coli; label: 32P end label
Procedure: (§3) The binding of the RIP14-2 isoform to this element was weaker than that of RIP14-1 when similar amounts of RIP14 proteins were used. […] Several other DNA elements were tested in the gel shift assay, including the retinoic acid response element from the promoter of the human RARβ2 isoform (βRARE) (de The et al., Nature 343:177-180, 1990). In the presence of RXR, the βRARE was bound by both the RIP14 isoforms and RIP15 (FIG. 8, panel B). Again, the binding of the RIP14-2/RXR heterodimer was weaker than the RIP14-1/RXR heterodimer when a similar amount of RIP14 proteins were used (FIG. 8, panel B, lanes 10 and 14).
(§4) RIP14 and RIP15 proteins were produced by in vitro translation (Promega TNT, Madison, Wis.) using expression vectors containing the RIP genes following a T7 promoter. To generate full length RIP14-2 constructs, fragments from RIP14-1 clone No. 15 containing regions from the middle of the E domain to the 3′ end replaced the corresponding regions of RIP14-2 Clones No. 3 or 12, respectively. Sequences were confirmed by DNA sequencing. Human RXRα protein was expressed in E. coli using a bacterial expression vector based on the bacteriophage T7 promoter (Carter et al., Mol. Cell. Biol. in press., 1994). […]

RIP15 = molecular target: T1, RIP15; assay: EMSA; without RXR; conditions: label: 32P end label
Procedure: as §3, §4

T2 sequence (Q60641 other isoform, or with tags, fused parts or gaps, chain 1 of 2): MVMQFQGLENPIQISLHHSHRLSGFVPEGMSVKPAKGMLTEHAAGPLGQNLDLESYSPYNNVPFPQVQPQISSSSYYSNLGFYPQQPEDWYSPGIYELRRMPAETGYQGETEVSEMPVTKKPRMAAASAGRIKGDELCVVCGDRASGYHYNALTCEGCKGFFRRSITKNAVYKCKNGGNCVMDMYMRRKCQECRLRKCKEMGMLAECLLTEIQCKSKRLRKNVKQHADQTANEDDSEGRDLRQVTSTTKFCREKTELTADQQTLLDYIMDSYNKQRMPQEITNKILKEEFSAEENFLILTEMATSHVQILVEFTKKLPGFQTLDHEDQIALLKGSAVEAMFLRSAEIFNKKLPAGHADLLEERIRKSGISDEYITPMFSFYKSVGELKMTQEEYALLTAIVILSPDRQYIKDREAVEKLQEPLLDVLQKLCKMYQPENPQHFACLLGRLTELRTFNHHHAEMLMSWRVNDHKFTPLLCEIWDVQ
T2 sequence (P19793 whole entry, chain 2 of 2): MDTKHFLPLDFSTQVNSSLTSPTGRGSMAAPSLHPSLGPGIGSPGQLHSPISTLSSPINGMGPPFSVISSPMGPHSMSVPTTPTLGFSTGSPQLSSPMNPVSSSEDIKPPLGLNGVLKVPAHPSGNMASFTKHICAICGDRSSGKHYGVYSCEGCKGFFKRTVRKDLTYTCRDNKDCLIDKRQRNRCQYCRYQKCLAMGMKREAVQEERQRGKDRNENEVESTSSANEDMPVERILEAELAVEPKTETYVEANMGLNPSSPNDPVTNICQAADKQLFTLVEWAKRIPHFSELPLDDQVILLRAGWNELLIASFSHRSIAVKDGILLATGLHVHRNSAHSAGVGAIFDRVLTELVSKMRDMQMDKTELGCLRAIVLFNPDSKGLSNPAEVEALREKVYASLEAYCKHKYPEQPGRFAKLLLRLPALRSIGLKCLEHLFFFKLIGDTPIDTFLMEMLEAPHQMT
Sequence of RIP15/RXRalpha heterodimer (P19793 whole entry, canonical isoform, one chain of several): as the sequence (P19793 whole entry, chain 2 of 2) above

Row | Binder | binding result [1] | binding result [2] | binding result [3] | binding result (RIP15)
1 | betaRARE (dsDNA) DNA 1: GATCCGGGTAGGGTTCACCGAAAGTTCACTCGA DNA 2: TCGAGTGAACTTTCGGTGAACCCTACCCGGATC | binds | – | – | –
2 | hsp27 EcRE (dsDNA) DNA 1: CTAGACAAGGGTTCAATGCACTTGTCCATCG DNA 2: CGATGGACAAGTGCATTGAACCCTTGTCTAG | – | binds | no binding | no binding
